Experimental findings from patent US10357549B2, “Pigment epithelium-derived factor (PEDF) and peptide derivatives thereof for use in osteoblast differentiation and bone growth” (Yale University, priority 2014, dated 2019) are described below.

For one assay, the system named is hMSCs. Kind of assay: Adipogenic differentiation of human MSCs. In kind it is cell-based. The note with it: PEDF started on day 0, adipogenic medium 10 days. As to the method: Adipose-derived hMSCs [American Type Culture Collection (ATCC), Manasses, Va., USA; PCS-500-011) were propagated in MSC basal medium supplemented with MSC growth kit (ATCC). Cells were CD29, CD44, CD105, and CD166 positive and negative for CD 31, CD34, and CD45. Interrogation of Wnt-β-catenin signaling was done in ATCC MSC basal medium with 2% FBS. PEDF (500 ng/ml) was added for 6 h. Passage 2 and 3 hMSCs were used for Wnt signaling experiments. For adipocyte conversion, cells (5000 cells/cm^2) were placed in adipocyte differentiation medium (ATCC; PCS-500-050) for 9-10 d. For osteoblast differentiation, cells (5000 cells/cm^2) were differentiated in osteoblast differentiation medium (ATCC; PCS-500-052) for 10-21 d. Alkaline phosphatase kit (Sigma) was used to stain osteoblasts.
RNA was isolated and processed using the RNAEasy mini kit (Qiagen, Valencia, Calif., USA). Primer probe sets were obtained from a commercial source (Applied Biosystems, Foster City, Calif., USA), and qRT-PCR was performed on a TaqMan ABI 7500 system (Applied Biosystems) as described previously (Schmitz et al., 2011, Am J Pathol, 179: 2990-2999). Target gene expression was normalized against 18S ribosomal RNA using the ΔΔCt method. […]

The next assay deals with PEDF knock-out mice. The experiment in a line: PEDF i.p. treatment of young and old PEDF KO mice, trabecular bone. Conditions: young (200 ng i.p. every third day, two weeks) and old (25 μg/kg i.p. every third day, 4 weeks) PEDF KO mice. The assay is classed as in vivo, mouse. An excerpt:
A ScanCo μCT 35 scanner (ScanCo Medical AG, Brüttisellen, Switzerland; Yale Center Core for Musculoskeletal Disorders) was used to assess the distal femur for trabecular and cortical bone morphology from 21-d-old WT and PEDF-KO mice in a blinded manner. Axial, sagittal, and coronal images were obtained at standardized sites, and measures of trabecular and total bone volumes and other parameters of bone density were obtained (Bouxsein et al., 2010, J Bone Miner Res, 25: 1468-1486). For histology, femurs and tibiae of 14- and 26-d-old mice were dissected, cleaned, and fixed in 70% ethanol, then further dehydrated through graded ethanols, cleared in toluene, and embedded in methyl methacrylate (MMA). After polymerization, MMA blocks were removed from the mold, cut to size, sanded, and polished on a Buehler Metasery (Buehler, Lake Bluff, Ill., USA). Longitudinal sections of […] were cut using a Reichert-Jung RM 2165 microtome (Leica Microsystems, Jena, Germany) using a D-profile tungsten carbide knife, mounted on charged slides, and stained with either Goldner's trichrome or Toluidine Blue O (pH 3.7).
Experiments were conducted to examine the effects of PEDF treatment on bone in young (44 days) and old (6 month) PEDF knock-out mice. PEDF (200 ng) was delivered i.p. every third day for two weeks in young mice. […]

B1: Pigment epithelium-derived factor (protein)
chain: QNPASPPEEGSPDPDSTGALVEEEDPFFKVPVNKLAAAVSNFGYDLYRVRSSTSPTTNVLLSPLSVATALSALSLGAEQRTESIIHRALYYDLISSPDIHGTYKELLDTVTAPQKNLKSASRIVFEKKLRIKSSFVAPLEKSYGTRPRVLTGNPRLDLQEINNWVQAQMKGKLARSTKEIPDEISILLLGVAHFKGQWVTKFDSRKTSLEDFYLDEERTVRVPMMSDPKAVLRYGLDSDLSCKIAQLPLTGSMSIIFFLPLKVTQNLTLIEESLTSEFIHDIDRELKTVQAVLTVPKLKLSYEGEVTKSLQEMKLQSLFDSPDFSKITGKPIKLTQVEHRAGFEWNEDGAGTTPSPGLQPAHLTFPLDYHLNQPFIFVLRDTDTGALLFIGKILDPRGP
notes: Full-length recombinant human PEDF generated in HEK cells; 50-kDa secreted protein of the SERPIN superfamily
In the case of B1, in the assay on hMSCs, the “adipogenesis of hMSCs” value is “inhibits adipogenesis” and the “proadipogenic transcription factors in hMSCs” value is listed as “inhibited proadipogenic transcription factors”. In addition, in the assay on PEDF knock-out mice, the “trabecular bone volume (BV)” value is reported as “increases” and the trabecular thickness entry was “increases”.
